In US8440629B2, “Cyclic receptor-associated protein (RAP) peptides” (Raptor Pharmaceuticals Inc., priority 2007, dated 2013):

Legend:
Assay in all cases: Solid phase binding assay, LRP2 CR89 mutant
[1] = target: T1, LRP2 CR89 Y1042W (WVWR) (Homo sapiens, UniProt P98164, Y1043W)
T1 construct: two CR pairs from LRP2 (CR89, CR3435); made in house; host or cells: E. coli BL21(DE3) CodonPlus-RIPL, pET30(+)a
T1 sequence (P98164 1025-1102 Y1043W): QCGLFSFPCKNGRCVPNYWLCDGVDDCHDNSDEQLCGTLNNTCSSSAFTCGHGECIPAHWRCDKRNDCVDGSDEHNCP
From the text: (§1) Each amplified fragment was sequentially digested with BamHI and HindIII and then ligated into similarly digested pET30(+)a. The resulting plasmids encode proteins consisting of N-terminal hexahistidine and S-peptides fused to the CR fragment. Ligation reactions were transformed into XL-Blue MRF′ (Stratagene) by electroporation and plasmids isolated from single colonies. Three mutations, […], V1047D and R1088D, were introduced into the LRP2 CR89 expression plasmid both singly and in combination using Stratagene QuikChange II XL reagents and the primers: […]
(§2) Purified, refolded CR protein (1 μg) was bound to Nunc Maxisorp™ 96-well plates in TBS pH 8 supplemented with 5 mM CaCl2 (TBSC) overnight at 4° C. Wells were washed with TBSC and then blocked with TBSC containing 2% bovine serum albumin (BSA). RAP ligands were then incubated with the immobilized receptor at a range of concentrations for 2 hours in the above blocking buffer supplemented with 0.05% Tween-20 at room temperature. Control wells contained no added ligand. As an additional control, to determine whether the absence of calcium affected binding, 10 mM EGTA was included in the incubation medium for some samples. Wells were washed with TBSTC and bound ligands detected with polyclonal anti-RAP (BP41/42, 1:1,000, BioMarin). Excess primary antibody was removed and wells washed before incubation with the secondary antibody, HRP-conjugated goat anti rabbit IgG (Bio-Rad). After washing, TMB substrate solutions (Bio-Rad) were added to detect HRP. Color development was stopped with 1N HCl. Absorption at 450 nm was measured with a microplate spectrophotometer (Molecular Devices). Data were plotted and Kd values derived by non-linear regression with the assumption of single-site binding (GraphPad Prism).
(§3) One premise of this work was that amino acids at A, C, A′ and C′ within the calcium-binding loops of a CR pair were key determinants of binding affinity for RAP and would be similarly important for binding of RAP variants. To test this idea, mutant LRP2 CR89 were prepared in which the native, non-canonical residues at these positions were sequentially substituted with the non-native, canonical residues. As defined above, the A, C, A′, C′ string for LRP2 CR89 is YVWR. Mutants included LRP2 CR89 Y1042W (WVWR), LRP2 CR89 V1047D (YDWR), LRP2 CR89 R1088D (YVWD), LRP2 CR89 V1047D R1088D (YDWD), LRP2 CR89 Y1042W V1047D R1088D (WDWD), LRP2 CR89 Y1042W V1047D (WDWR), LRP2 CR89 Y1042W R1088D (WVWD). Binding to both RAP d3 and MegaRAP1 d3 were measured for each LRP2 CR89 mutant by solid-phase assay. Only the YVWD mutant retained significant binding to MegaRAP1 d3, with an approximate 2-fold loss of affinity relative to LRP2 CR89 (FIG. 6 and Table 3). […] The A′ position in LRP2 CR89 is a tryptophan, the canonical residue for wild-type RAP d3 binding, and was not mutated in our studies.

[2] = target: T2, LRP2 CR89 V1047D R1088D (YDWD) (Homo sapiens, UniProt P98164, R1089D/V1048D)
T2 construct: two CR pairs from LRP2 (CR89, CR3435); made in house; host or cells: E. coli BL21(DE3) CodonPlus-RIPL, pET30(+)a
T2 sequence (P98164 1022-1105 V1048D/R1089D limits assumed): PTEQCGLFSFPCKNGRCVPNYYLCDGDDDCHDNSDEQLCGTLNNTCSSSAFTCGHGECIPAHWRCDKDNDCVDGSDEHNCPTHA
From the text: as §1, §2, §3

[3] = target: T3, LRP2 CR89 R1088D (YVWD) (Homo sapiens, UniProt P98164, R1089D)
T3 construct: two CR pairs from LRP2 (CR89, CR3435); made in house; host or cells: E. coli BL21(DE3) CodonPlus-RIPL, pET30(+)a
T3 sequence (P98164 1022-1105 R1089D limits assumed): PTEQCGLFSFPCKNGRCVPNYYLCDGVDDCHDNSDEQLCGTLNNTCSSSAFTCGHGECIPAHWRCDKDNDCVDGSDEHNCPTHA
From the text: as §1, §2, §3

[4] = target: T4, LRP2 CR89 Y1042W V1047D (WDWR) (Homo sapiens, UniProt P98164, V1048D/Y1043W)
T4 construct: two CR pairs from LRP2 (CR89, CR3435); made in house; host or cells: E. coli BL21(DE3) CodonPlus-RIPL, pET30(+)a
T4 sequence (P98164 1025-1102 Y1043W/V1048D): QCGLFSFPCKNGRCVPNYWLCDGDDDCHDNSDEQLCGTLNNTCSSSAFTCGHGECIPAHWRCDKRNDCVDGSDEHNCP
From the text: as §1, §2, §3

[5] = target: T5, LRP2 CR89 V1047D (YDWR) (Homo sapiens, UniProt P98164, V1048D)
T5 construct: two CR pairs from LRP2 (CR89, CR3435); made in house; host or cells: E. coli BL21(DE3) CodonPlus-RIPL, pET30(+)a
T5 sequence (P98164 1022-1105 V1048D limits assumed): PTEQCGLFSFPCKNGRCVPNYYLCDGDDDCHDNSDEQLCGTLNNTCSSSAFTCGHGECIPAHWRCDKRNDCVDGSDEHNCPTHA
From the text: as §1, §2, §3

- binding (in words) [1]: prevent binding
- binding (in words) [2]: failed to bind measurably
- loss of affinity relative to LRP2 CR89 [3]: ~2 fold
- binding (in words) [4]: failed to bind measurably
- binding (in words) [5]: failed to bind measurably
B1: MegaRAP1 d3: d3 of RAP variant selected on LRP2 CR89: S213T, E217K, H249Y, E251K, K256A, K270E (SEQ ID NO: 93) (protein, listed as Homo sapiens)
chain: LDRLRRVSHQGYSTEAEFEEPRVIDLWDLEQSANLTDKELEAFREELKHFKAKIEAHNHYQKQLEIAHEDLRHAESVGDGERVSRSREKHALLEGRTKELGYTVKKHLQDLSGRISRAR
